# Measured values: publication doi:10.1101/869594 (bioRxiv, 2019)
# Several values for one entry are separate records, joined by “and”; a condition that tells them apart may be missing. Equal values may be shown once.
# B1: N-terminal membrane anchoring domain of mycobacterial Wag31 (domain or fragment)
# chain: PLTPADVHNVAFSKPPIGKRGYNEDEVDAFLDLVENELTRLIEENSDLRQRINELDQEL
# Molecular target: the molecule itself
# Assay: crystal structure
protein,measurement,value
B1,stoichiometry N,2 and 4
